Assay [1] addresses NprR(ΔHTH)(Y223A/F225A) (Bacillus thuringiensis (strain 407)). As to the kind of experiment: crystal structure; NprR(ΔHTH)(Y223A/F225A) alone, crystallized at 18°C in 1.0 M Na citrate, 0.1 M Hepes pH 7.6; 3.25 Å, space group P 21 21 21, 2 molecules per asymmetric unit.
Assay [2] addresses NprR from B. thuringiensis strain 407 (NprR-6His) (Bacillus thuringiensis (strain 407)). Nature of the assay: MST; 33 nM NprR labelled with NT-495-NHS; Bt Spo0F serially diluted from about 260 μM to 8 nM; 5% glycerol in MST buffer (50 mM Tris-HCl pH 7.4, 150 mM NaCl, 10 mM MgCl2, 0.05% Tween-20); 20% LED power, 40% IR-laser power; absence of NprX; apparent Kd.

The values below come from PMC4970707.

The term stoichiometry N denotes a count of units in the complex or per binding partner. Molecule “NprR(ΔHTH)(Y223A/F225A) (domain or fragment)” had a stoichiometry N in assay [1] of 2.

B1: Spo0F from B. thuringiensis (6His-Spo0F) (natural protein)
chain: MEGKILIVDDQYGIRVLLHEVFQKEGYQTFQAANGFQALDIVKKDNPDLVVLDMKIPGMDGIEIFKACKEIDESIKVILMSAYGELDMIQEAKDLGALMHFAKPFDIDEIRQAVRNELAVEA
Take B1: in assay [2], the Kd worked out at 5 µM.
